This series concerns the molecule itself. The series is described as follows: SEC. (In general: In gel filtration, larger molecules generally elute earlier.)

For orientation: stoichiometry N means a count of units in the complex or per binding partner.

B1: sulfinylated Myc-Tsa1 (CP-SO2H), from H2O2-exposed cells (enzyme, S. cerevisiae, UniProt P34760 1-196, looked up)
chain: MVAQVQKQAPTFKKTAVVDGVFDEVSLDKYKGKYVVLAFIPLAFTFVCPTEIIAFSEAAKKFEEQGAQVLFASTDSEYSLLAWTNIPRKEGGLGPINIPLLADTNHSLSRDYGVLIEEEGVALRGLFIIDPKGVIRHITINDLPVGRNVDEALRLVEAFQWTDKNGTVLPCNWTPGAATIKPTVEDSKEYFEAANK
modifications: sulfinic acid (CP-SO2H) at the peroxidatic Cys (CP, C48)
As to B1, the “stoichiometry N” value is approximately 20.

The values above are taken from publication PMC4556779 (Redox Biology, 2015).
